Laboratory results published in PMC8063088.

What was measured:
[1] = molecular target: NET1_(ΔNTR)^Q443N/R445T with C-terminal biotinylated Avi-tag (SPR ligand) (human) (UniProt O95631); test: SPR; NEO1/DCC:NET1 binding site analysis; biotinylated NET1_(ΔNTR) wild type, Interface-1 and Interface-2 mutants captured at 1007, 1027 and 937 RU; analytes NEO1 and DCC FN456 and FN56, two-fold series from 50 μM; equilibrium, one-site model; 25 °C, 10 mM HEPES pH 7.5, 150 mM NaCl, 0.05% polysorbate-20, 1 mg/ml BSA
[2] = molecular target: NET1_(ΔNTR)^F55R with C-terminal biotinylated Avi-tag (SPR ligand) (human) (UniProt O95631); test: as above
[3] = molecular target: NET1_(ΔNTR) 'Interface-2' mutant (Q443N/R445T), made with an N-terminal His6-SUMO tag (human) (UniProt O95631); test: AUC; sedimentation velocity, 20 °C; binary NEO1_(FN456)-NET1_(ΔNTR) complexes (NET1 wild type at different concentrations, or Interface-1/-2 mutants) mixed equimolar, 10 mM HEPES pH 7.5, 150 mM NaCl, 2 mM CaCl2
[4] = molecular target: NET1_(ΔNTR) 'Interface-1' mutant (F55R), made with an N-terminal His6-SUMO tag (human) (UniProt O95631); test: as above
1D4-tagged NET1_(ΔNTR) = 1D4-tagged NET1_(ΔNTR) (UniProt O95631); test: proximity ligation assay (PLA); details: COS-7 cells co-transfected with NEO1-mVenus and full-length RGMB, incubated with NET1ΔNTR; p = 0.0107; parent: est. 59; read off a plot

For “NEO1 FN type III domains 4 to 6 (NEO1_(FN456)) (domain or fragment)”, the fold reduction of binding against wild-type NET1 (ΔNTR) [1] was 2 fold, the fold lower affinity than wild-type NET1 (ΔNTR) [2] was 10 fold and the stoichiometry N [3] was 1 NET1:NEO1. For the same substance, the stoichiometry N [4] was 1 NET1:NEO1.
In the case of “full-length GPI-anchored RGMB (RGMBFL), N-terminal FLAG (from UniProt Q6NW40) A186R”, the response (No. of PLA foci) (1D4-tagged NET1_(ΔNTR)) is reported as 22.
